Results published in patent US20160340421A1.
Each block holds one substance with its values, some of them ahead of it.

Experiments:
[1] = biological target: GDF8/TGFβ[48-72] chimera (T48): GDF8.1-47.TGFβ1.49-76.GDF8.73-109 (human GDF8 with human TGFβ-1 sequence); experiment: cell-based or functional assay
Target sequence (chain, as listed by the source mutant limits assumed): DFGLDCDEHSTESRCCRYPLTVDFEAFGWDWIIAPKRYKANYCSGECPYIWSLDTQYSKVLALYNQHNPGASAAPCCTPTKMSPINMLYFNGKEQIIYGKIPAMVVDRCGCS

[2] = biological target: Human GDF8 homodimer (mature human Growth and Differentiation Factor-8) (human) (UniProt O14793); experiment: cell-based or functional assay
hGDF11 homodimer (human) [3] = biological target: hGDF11 homodimer (human) (UniProt O95390); experiment: cell-based or functional assay
hGDF11 homodimer (human), sequence (O95390 299-407 limits assumed): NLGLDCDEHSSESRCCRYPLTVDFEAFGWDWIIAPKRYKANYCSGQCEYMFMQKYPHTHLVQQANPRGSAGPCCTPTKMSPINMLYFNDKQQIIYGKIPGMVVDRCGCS

[4] = biological target: Human GDF8 homodimer (mature human Growth and Differentiation Factor-8) (human) (UniProt O14793); experiment: SPR, antibody captured, 25 nM antigen
hGDF11 homodimer (human) [5] = biological target: hGDF11 homodimer (human) (UniProt O95390); experiment: SPR, antibody captured, 25 nM antigen
[6] = biological target: Human GDF8 homodimer (mature human Growth and Differentiation Factor-8) (human) (UniProt O14793); experiment: SPR, antibody captured, buffer without BSA
hGDF11 homodimer (human) [7] = biological target: hGDF11 homodimer (human) (UniProt O95390); experiment: SPR, antibody captured, buffer without BSA
[8] = biological target: Human GDF8 homodimer (mature human Growth and Differentiation Factor-8) (human) (UniProt O14793); experiment: SPR Biacore T100, captured on anti-hFc, 25°C
hGDF11 homodimer (human) [9] = biological target: hGDF11 homodimer (human) (UniProt O95390); experiment: SPR Biacore T100, captured on anti-hFc, 25°C
[10] = biological target: Human GDF8 homodimer (mature human Growth and Differentiation Factor-8) (human) (UniProt O14793); experiment: SPR Biacore T100, captured on anti-hFc, 37°C
hGDF11 homodimer (human) [11] = biological target: hGDF11 homodimer (human) (UniProt O95390); experiment: SPR Biacore T100, captured on anti-hFc, 37°C
[12] = biological target: Human GDF8 homodimer (mature human Growth and Differentiation Factor-8) (human) (UniProt O14793); experiment: Luminex: hGDF8 beads with 1.25 µg/ml antibody, then Activin RIIB-mFc; MFI of bound Activin RIIB-mFc (n=3)

Human GDF8 homodimer (mature human Growth and Differentiation Factor-8) (human), sequence (O14793 267-375): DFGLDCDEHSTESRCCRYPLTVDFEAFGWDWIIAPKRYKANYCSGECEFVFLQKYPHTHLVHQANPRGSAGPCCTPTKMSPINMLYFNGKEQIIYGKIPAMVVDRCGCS

approximate IC50, luciferase bioassay with GDF8/TGFβ[48-72] conditioned medium [1]: 0.402 nM
IC50, GDF8-inducible luciferase, A204/Smad2 cells, 0.8 nM GDF8 [2]: 0.62 nM
IC50, luciferase bioassay, 0.5 nM GDF8 [2]: 0.172 nM
IC50, luciferase bioassay, 1 nM GDF8 [2]: 0.398 nM
IC50, GDF11-inducible luciferase, A204/Smad2 cells, 0.8 nM GDF11 (hGDF11 homodimer (human) [3]): 0.94 nM
IC50, luciferase bioassay, 0.4 nM GDF11 (hGDF11 homodimer (human) [3]): 0.255 nM
IC50, luciferase bioassay, 0.8 nM GDF11 (hGDF11 homodimer (human) [3]): 0.459 nM
Kd [4]: 0.05 nM
T1/2 [4]: 3.18 h
Kd (hGDF11 homodimer (human) [5]): 0.08 nM
T1/2 (hGDF11 homodimer (human) [5]): 2.27 h
Kd [6]: 0.002 nM
T1/2 [6]: 21.7 h
Kd (hGDF11 homodimer (human) [7]): 0.001 nM
T1/2 (hGDF11 homodimer (human) [7]): 1.75 h
Kd [8]: 0.0103 nM
T1/2 [8]: 4.55 h
Kd (hGDF11 homodimer (human) [9]): 0.0146 nM
T1/2 (hGDF11 homodimer (human) [9]): 3.68 h
Kd [10]: 0.0244 nM
T1/2 [10]: 1.17 h
Kd (hGDF11 homodimer (human) [11]): 0.0274 nM
T1/2 (hGDF11 homodimer (human) [11]): 0.933 h
MFI [12]: 58
Substance: Control I: human anti-GDF8 antibody with the heavy and light chain variable regions of Myo29

MFI [12]: 4560
Substance: Negative Control (Table 11)
